Here are results for 1 substance from paper PMC3012730, “The Actinobacillus pleuropneumoniae HMW1C-Like Glycosyltransferase Mediates N-Linked Glycosylation of the Haemophilus influenzae HMW1 Adhesin” (PLoS ONE, 2010).

Series [1] deals with O=c1ccn([C@@H]2O[C@H](COP(=O)(O)OP(=O)(O)O[C@H]3O[C@H](CO)[C@H](O)[C@H](O)[C@H]3O)[C@@H](O)[C@H]2O)c(=O)[nH]1. Description: purified protein. To be noted: apparent Km, fixed acceptor protein His-HMW1ct (standard 3.2 µM), 50 mM HEPES pH 8.0, 50 mM KCl, 5 mM MgCl2, room temperature.
For series [2], the system named is O=c1ccn([C@@H]2O[C@H](CO[P@@](=O)(O)O[P@@](=O)(O)O[C@H]3O[C@H](CO)[C@@H](O)[C@H](O)[C@H]3O)[C@@H](O)[C@H]2O)c(=O)[nH]1. Nature of the series: purified protein. Particulars: apparent Km, fixed acceptor protein His-HMW1ct (standard 3.2 µM), 50 mM HEPES pH 8.0, 50 mM KCl, 5 mM MgCl2, room temperature.

In the case of “ApHMW1C (Actinobacillus pleuropneumoniae serovar 5b str. L20)”, in series [1], the Km stood at 147.5 ± 24.8 µM, the Vmax came out at 0.0643 µmol/min/mg, the kcat stood at 0.077 ± 0.005 s⁻¹ and the kcat/Km turned out to be 520 ± 210 M⁻¹ s⁻¹. Also, in series [2], the Km is 38.9 ± 5.8 µM, the Vmax was 0.109 µmol/min/mg, the kcat was determined as 0.13 ± 0.005 s⁻¹ and the kcat/Km was 3300 ± 800 M⁻¹ s⁻¹.

A word on the Km: it is the substrate concentration at which the rate is half of its maximum. A word on the Vmax: it is the top rate of the reaction or transport when substrate is in excess. A word on the kcat: it is the maximal rate divided by the concentration of active sites. One may read the kcat/Km as the turnover number divided by the Michaelis constant.
